In US20230140293A1:

What was measured:
[1] = biological target: CH505 w030.21 gp120 (HIV-1); experiment: ELISA, gp120 on plate
[2] = biological target: CH505 w100.B6 gp120 (HIV-1); experiment: ELISA, gp120 on plate
[3] = biological target: CH505 w078.33 gp120 (HIV-1); experiment: ELISA, gp120 on plate
[4] = biological target: CH505 w053.31 gp120 (HIV-1); experiment: ELISA, gp120 on plate
[5] = biological target: CH505 w030.28 gp120 (HIV-1); experiment: ELISA, gp120 on plate
CH505 M5 gp120 (HIV-1) = experiment: ELISA, gp120 on plate
[6] = biological target: CH505 transmitted/founder (TF) gp120 (HIV-1); experiment: ELISA, gp120 on plate
[7] = biological target: CH505 w020.14 gp120 (HIV-1); experiment: ELISA, gp120 on plate
CH505 M11 gp120 (HIV-1) = experiment: ELISA, gp120 on plate
[8] = biological target: CH505 w078.15 gp120 (HIV-1); experiment: ELISA, gp120 on plate
[9] = biological target: CH505 w053.16 gp120 (HIV-1); experiment: ELISA, gp120 on plate
[10] = biological target: HIV-1 CH0505TF.G458Y Env on Env-pseudotyped virus produced in 293T cells (HIV-1); experiment: cell-based or functional assay
[11] = biological target: HIV-1 CH0505TF (CH505 transmitted/founder) Env on Env-pseudotyped virus produced in 293T cells (HIV-1); experiment: cell-based or functional assay
[12] = biological target: HIV-1 CH0505TF.N280D Env on Env-pseudotyped virus produced in 293T cells (HIV-1); experiment: cell-based or functional assay
[13] = biological target: HIV-1 CH0505TF.S365P Env on Env-pseudotyped virus produced in 293T cells (HIV-1); experiment: cell-based or functional assay
[14] = biological target: CH0505TF.gly3.461 Env, Env-pseudotyped virus produced in 293T cells (HIV-1); experiment: cell-based or functional assay
[15] = biological target: CH0505TF.gly4 Env, pseudotyped virus produced in 293S GnTI- cells (HIV-1); experiment: cell-based or functional assay
[16] = biological target: CH0505TF.gly3.197 Env, pseudotyped virus produced in 293S GnTI- cells (HIV-1); experiment: cell-based or functional assay
[17] = biological target: CH0505TF.gly3.461 Env, pseudotyped virus produced in 293S GnTI- cells (HIV-1); experiment: cell-based or functional assay
[18] = biological target: CH0505TF.G458Y Env, Env-pseudotyped virus produced in 293T cells (HIV-1); experiment: cell-based or functional assay
[19] = biological target: CH0505TF Env, Env-pseudotyped virus produced in 293T cells (HIV-1); experiment: cell-based or functional assay
[20] = biological target: CH0505TF.gly3.276 Env, Env-pseudotyped virus produced in 293T cells (HIV-1); experiment: cell-based or functional assay
[21] = biological target: CH0505TF.gly3.276 Env, pseudotyped virus produced in 293S GnTI- cells (HIV-1); experiment: cell-based or functional assay
[22] = biological target: CH0505TF.G458Y Env, pseudotyped virus produced in 293S GnTI- cells (HIV-1); experiment: cell-based or functional assay
[23] = biological target: CH0505TF.gly3.197 Env, Env-pseudotyped virus produced in 293T cells (HIV-1); experiment: cell-based or functional assay
[24] = biological target: CH0505.w4.3 Env, Env-pseudotyped virus produced in 293T cells (HIV-1); experiment: cell-based or functional assay
[25] = biological target: CH0505TF.gly4 Env, Env-pseudotyped virus produced in 293T cells (HIV-1); experiment: cell-based or functional assay
[26] = biological target: CH0505TF Env, pseudotyped virus produced in 293S GnTI- cells (HIV-1); experiment: cell-based or functional assay
[27] = biological target: HIV-1 Env 426c.DM (N460D.N463D), Env-pseudotyped virus produced in 293T cells (HIV-1 clade C strain 426c); experiment: cell-based or functional assay
[28] = biological target: HIV-1 clade C strain 426c Env on Env-pseudotyped virus produced in 293s/GnTI-/- cells (Man5-enrichment) (HIV-1); experiment: cell-based or functional assay
[29] = biological target: HIV-1 Env 426c.TM4 (S278R.G471S.N460D.N463D), Env-pseudotyped virus produced in 293T cells (HIV-1 clade C strain 426c); experiment: cell-based or functional assay
[30] = biological target: HIV-1 426c.DM (N460D/N463D) Env on Env-pseudotyped virus produced in 293T cells (HIV-1); experiment: cell-based or functional assay
[31] = biological target: HIV-1 426c.SM (N276D) Env on Env-pseudotyped virus produced in 293T cells (HIV-1); experiment: cell-based or functional assay
[32] = biological target: HIV-1 426c.DM (N460D/N463D) Env on Env-pseudotyped virus produced in 293s/GnTI-/- cells (Man5-enrichment) (HIV-1); experiment: cell-based or functional assay
[33] = biological target: HIV-1 426c.TM (N276D/N460D/N463D) Env on Env-pseudotyped virus produced in 293T cells (HIV-1); experiment: cell-based or functional assay
[34] = biological target: HIV-1 426c.SM (N276D) Env on Env-pseudotyped virus produced in 293s/GnTI-/- cells (Man5-enrichment) (HIV-1); experiment: cell-based or functional assay
[35] = biological target: HIV-1 Env 426c, Env-pseudotyped virus produced in 293S GnTI- cells (Man5-enriched) (HIV-1 clade C strain 426c); experiment: cell-based or functional assay
[36] = biological target: HIV-1 clade C strain 426c Env on Env-pseudotyped virus produced in 293T cells (HIV-1); experiment: cell-based or functional assay
[37] = biological target: HIV-1 Env 426c.TM4 (S278R.G471S.N460D.N463D), Env-pseudotyped virus produced in 293S GnTI- cells (Man5-enriched) (HIV-1 clade C strain 426c); experiment: cell-based or functional assay
[38] = biological target: HIV-1 Env 426c.TM (N276D.N460D.N463D), Env-pseudotyped virus produced in 293S GnTI- cells (Man5-enriched) (HIV-1 clade C strain 426c); experiment: cell-based or functional assay
[39] = biological target: HIV-1 Env 426c.SM (N276D), Env-pseudotyped virus produced in 293S GnTI- cells (Man5-enriched) (HIV-1 clade C strain 426c); experiment: cell-based or functional assay
[40] = biological target: HIV-1 Env 426c.DM (N460D.N463D), Env-pseudotyped virus produced in 293S GnTI- cells (Man5-enriched) (HIV-1 clade C strain 426c); experiment: cell-based or functional assay
[41] = biological target: HIV-1 426c.TM (N276D/N460D/N463D) Env on Env-pseudotyped virus produced in 293s/GnTI-/- cells (Man5-enrichment) (HIV-1); experiment: cell-based or functional assay
[42] = biological target: HIV-1 Env 426c.SM (N276D), Env-pseudotyped virus produced in 293T cells (HIV-1 clade C strain 426c); experiment: cell-based or functional assay
[43] = biological target: HIV-1 Env 426c, Env-pseudotyped virus produced in 293T cells (HIV-1 clade C strain 426c); experiment: cell-based or functional assay
[44] = biological target: HIV-1 Env 426c.TM (N276D.N460D.N463D), Env-pseudotyped virus produced in 293T cells (HIV-1 clade C strain 426c); experiment: cell-based or functional assay

## CH105 (antibody)
[1]
  log AUC: 10.6 log AUC
[2]
  log AUC: 11 log AUC
[3]
  log AUC: 8.9 log AUC
[4]
  log AUC: 13.5 log AUC
[5]
  log AUC: 9.1 log AUC
CH505 M5 gp120 (HIV-1)
  log AUC: 8.6 log AUC
[6]
  log AUC: 11.2 log AUC
[7]
  log AUC: 10.4 log AUC
CH505 M11 gp120 (HIV-1)
  log AUC: 11.7 log AUC
[8]
  log AUC: 10.1 log AUC
[9]
  log AUC: 9 log AUC

## CH106 (antibody)
[1]
  log AUC: 10.9 log AUC
[2]
  log AUC: 11.8 log AUC
[3]
  log AUC: 9.5 log AUC
[4]
  log AUC: 13.4 log AUC
[5]
  log AUC: 11.7 log AUC
CH505 M5 gp120 (HIV-1)
  log AUC: 8.4 log AUC
[6]
  log AUC: 11.3 log AUC
[7]
  log AUC: 11.2 log AUC
CH505 M11 gp120 (HIV-1)
  log AUC: 12.8 log AUC
[8]
  log AUC: 11 log AUC
[9]
  log AUC: 9.8 log AUC

## N6 (antibody)
[10]
  IC50 (µg/ml) in TZM-bl: 0.02 µg/mL
[11]
  IC50 (µg/ml) in TZM-bl: 0.06 µg/mL
[12]
  IC50 (µg/ml) in TZM-bl: > 17 µg/mL
[13]
  IC50 (µg/ml) in TZM-bl: 0.02 µg/mL
[14]
  IC50 (µg/ml) in TZM-bl: 0.004 µg/mL
[15]
  IC50 (µg/ml) in TZM-bl: 0.001 µg/mL
[16]
  IC50 (µg/ml) in TZM-bl: 0.003 µg/mL
[17]
  IC50 (µg/ml) in TZM-bl: 0.002 µg/mL
[18]
  IC50 (µg/ml) in TZM-bl: 0.02 µg/mL
[19]
  IC50 (µg/ml) in TZM-bl: 0.06 µg/mL
[20]
  IC50 (µg/ml) in TZM-bl: 0.003 µg/mL
[21]
  IC50 (µg/ml) in TZM-bl: 0.004 µg/mL
[22]
  IC50 (µg/ml) in TZM-bl: 0.008 µg/mL
[23]
  IC50 (µg/ml) in TZM-bl: 0.01 µg/mL
[24]
  IC50 (µg/ml) in TZM-bl: 0.01 µg/mL
[25]
  IC50 (µg/ml) in TZM-bl: 0.001 µg/mL
[26]
  IC50 (µg/ml) in TZM-bl: 0.016 µg/mL

## VRC-CH31 (antibody)
[10]
  IC50 (µg/ml) in TZM-bl: < 0.01 µg/mL
[11]
  IC50 (µg/ml) in TZM-bl: 0.03 µg/mL
[12]
  IC50 (µg/ml) in TZM-bl: > 25 µg/mL
[13]
  IC50 (µg/ml) in TZM-bl: 1.2 µg/mL
[27]
  IC50 (µg/ml) in TZM-bl: 0.73 µg/mL
[14]
  IC50 (µg/ml) in TZM-bl: 0.09 µg/mL
[28]
  ID50/IC50 in TZM-bl: 0.04 µg/mL
[15]
  IC50 (µg/ml) in TZM-bl: 0.001 µg/mL
[16]
  IC50 (µg/ml) in TZM-bl: 0.01 µg/mL
[29]
  IC50 (µg/ml) in TZM-bl: 0.15 µg/mL
[30]
  ID50/IC50 in TZM-bl: 0.73 µg/mL
[17]
  IC50 (µg/ml) in TZM-bl: 0.007 µg/mL
[31]
  ID50/IC50 in TZM-bl: > 25 µg/mL
[32]
  ID50/IC50 in TZM-bl: 0.02 µg/mL
[33]
  ID50/IC50 in TZM-bl: > 25 µg/mL
[34]
  ID50/IC50 in TZM-bl: 0.7 µg/mL
[18]
  IC50 (µg/ml) in TZM-bl: 0.023 µg/mL
[35]
  IC50 (µg/ml) in TZM-bl: 0.04 µg/mL
[19]
  IC50 (µg/ml) in TZM-bl: 0.03 µg/mL
[36]
  ID50/IC50 in TZM-bl: 0.62 µg/mL
[37]
  IC50 (µg/ml) in TZM-bl: 0.01 µg/mL
[38]
  IC50 (µg/ml) in TZM-bl: 1.6 µg/mL
[20]
  IC50 (µg/ml) in TZM-bl: 0.002 µg/mL
[39]
  IC50 (µg/ml) in TZM-bl: 0.7 µg/mL
[21]
  IC50 (µg/ml) in TZM-bl: 0.001 µg/mL
[22]
  IC50 (µg/ml) in TZM-bl: 0.06 µg/mL
[40]
  IC50 (µg/ml) in TZM-bl: 0.02 µg/mL
[23]
  IC50 (µg/ml) in TZM-bl: 0.01 µg/mL
[41]
  ID50/IC50 in TZM-bl: 1.6 µg/mL
[24]
  IC50 (µg/ml) in TZM-bl: 0.05 µg/mL
[42]
  IC50 (µg/ml) in TZM-bl: > 25 µg/mL
[25]
  IC50 (µg/ml) in TZM-bl: 0.002 µg/mL
[43]
  IC50 (µg/ml) in TZM-bl: 0.62 µg/mL
[44]
  IC50 (µg/ml) in TZM-bl: > 25 µg/mL
[26]
  IC50 (µg/ml) in TZM-bl: 0.04 µg/mL
